From the RNAGym collection of RNA variant scans (doi:10.7554/elife.90254)

B1: OR4K15 (parent)
chain: GUUAACGGUCAUAGGCCAUGGAAACUAGGAGCACCAUUUCGCUGCCAGUGAAGAAAUGAACAAAGAAAAUCUGGGCCAGGCAGGCAUCAAAAGAAAUAGUCUUGCGCUCAACCAGAAAGUCUGUAAUCAUUUUAAGGGUA

Variants of: B1
Experiment: self-cleavage, relative activity (ratio to wild type); higher = more cleavage; in vitro, sequencing; the parent is a self-cleaving ribozyme

**Q.** With GUUAACGGUCAUAGGCCAUGGAAACUAGGAGCACCAUUUCGCUGCCAGUGAAGAAAUGGACAAAGAAAAUCUGGGCCAGGCAGGCAUCAAAAGAAAUAGUCUUGCGCUCAACCAGGAAGUCUGUAAUCAUUUUAAGGGUA [A59G A116G] as the variant, how does the self-cleavage read?
**A.** 0.77

**Q.** For GUUAACGGUCAUAGGCCAUGGAAACUAGGAGCACCAUUUCGCUGCCAGUGAAGAAAUGGACAAAGAAAAUCUGGGCCAGGCAGGCAUCAAAAGAAAUAGUCUUGCGCUCAACCAGUAAGUCUGUAAUCAUUUUAAGGGUA [A59G A116U], which self-cleavage is on record?
**A.** 0.32

**Q.** For GUUAACGGUCAUAGGCCAUGGAAACUAGGAGCACCAUUUCGCUGCCAGUGAAGAAAUGGACAAAGAAAAUCUGGGCCAGGCAGGCAUCAAAAGAAAUAGUCUUGCGCUCAGCCAGAAAGUCUGUAAUCAUUUUAAGGGUA [A59G A111G], which self-cleavage is on record?
**A.** 0.02

**Q.** For GUUAACGGUCAUAGGCCAUGGAAACUAGGAGCACCAUUUCGCUGCCAGUGAAGAAAUGGACAAAGAAAAUCUGGGCCAGGCAGGCAUCAAAAGAAAUAGUCUUGCGCUCACCCAGAAAGUCUGUAAUCAUUUUAAGGGUA [A59G A111C], which self-cleavage is on record?
**A.** 0.03

**Q.** For GUUAACGGUCAUAGGCCAUGGAAACUAGGAGCACCAUUUCGCUGCCAGUGAAGAAAUGGACAAAGAAAAUCUGGGCCAGGCAGGCAUCAGAAGAAAUAGUCUUGCGCUCAACCAGAAAGUCUGUAAUCAUUUUAAGGGUA [A59G A90G], which self-cleavage is on record?
**A.** 0.78

**Q.** For GUUAACGGUCAUAGGCCAUGGAAACUAGGAGCACCAUUUCGCUGCCAGUGAAGAAAUGGACAAAGAAAAUCUGGGCCAGGCAGGCAUCAAAAGAAAUAGUCUUGCGCUCAACCAGAACGUCUGUAAUCAUUUUAAGGGUA [A59G A118C], which self-cleavage is on record?
**A.** 0.9

**Q.** With GUUAACGGUCAUAGGCCAUGGAAACUAGGAGCACCAUUUCGCUGCCAGUGAAGAAAUGGACAAAGAAAAUCUGGGCCAGGCAGGCAUCAAGAGAAAUAGUCUUGCGCUCAACCAGAAAGUCUGUAAUCAUUUUAAGGGUA [A59G A91G] as the variant, how does the self-cleavage read?
**A.** 0.8

**Q.** For GUUAACGGUCAUAGGCCAUGGAAACUAGGAGCACCAUUUCGCUGCCAGUGAAGAAAUGGACAAAGAAAAUCUGGGCCAGGCAGGCAUCAAAUGAAAUAGUCUUGCGCUCAACCAGAAAGUCUGUAAUCAUUUUAAGGGUA [A59G A92U], which self-cleavage is on record?
**A.** 1.08

**Q.** For GUUAACGGUCAUAGGCCAUGGAAACUAGGAGCACCAUUUCGCUGCCAGUGAAGAAAUGGACAAAGAAAAUCUGGGCCAGGCAGGCCUCAAAAGAAAUAGUCUUGCGCUCAACCAGAAAGUCUGUAAUCAUUUUAAGGGUA [A59G A86C], which self-cleavage is on record?
**A.** 0.64

**Q.** For GUUAACGGUCAUAGGCCAUGGAAACUAGGAGCACCAUUUCGCUGCCAGUGAAGAAAUGGACAAAGAAAAUCUGGGCCAGGCAGGCUUCAAAAGAAAUAGUCUUGCGCUCAACCAGAAAGUCUGUAAUCAUUUUAAGGGUA [A59G A86U], which self-cleavage is on record?
**A.** 1.71

**Q.** Which self-cleavage does the source give for GUUAACGGUCAUAGGCCAUGGAAACUAGGAGCACCAUUUCGCUGCCAGUGAAGAAAUGGACAAAGAAAAUCUGGGCCAGGCAGGCGUCAAAAGAAAUAGUCUUGCGCUCAACCAGAAAGUCUGUAAUCAUUUUAAGGGUA [A59G A86G] here?
**A.** 0.5

**Q.** For GUUAACGGUCAUAGGCCAUGGAAACUAGGAGCACCAUUUCGCUGCCAGUGAAGAAAUGGACAAAGAAAAUCUGGGCCAGGCAGGCAUCAAAAGAAAUGGUCUUGCGCUCAACCAGAAAGUCUGUAAUCAUUUUAAGGGUA [A59G A98G], which self-cleavage is on record?
**A.** 0.67

**Q.** For GUUAACGGUCAUAGGCCAUGGAAACUAGGAGCACCAUUUCGCUGCCAGUGAAGAAAUGGACAAAGAAAAUCUGGGCCAGGCAGGCAUCAAAAGAAAUAGUCUUGCGCUCCACCAGAAAGUCUGUAAUCAUUUUAAGGGUA [A59G A110C], which self-cleavage is on record?
**A.** 0.44

**Q.** Which self-cleavage does the source give for GUUAACGGUCAUAGGCCAUGGAAACUAGGAGCACCAUUUCGCUGCCAGUGAAGAAAUGGACAAAGAAAAUCUGGGCCAGGCAGGCAUCAAAAGAAAUAGUCUUGCGCUCUACCAGAAAGUCUGUAAUCAUUUUAAGGGUA [A59G A110U] here?
**A.** 0.97

**Q.** With GUUAACGGUCAUAGGCCAUGGAAACUAGGAGCACCAUUUCGCUGCCAGUGAAGAAAUGGACAAAGAAAAUCUGGGCCAGGCAGGCAUCAAAAGAAAUAGUCUUGCGCUCGACCAGAAAGUCUGUAAUCAUUUUAAGGGUA [A59G A110G] as the variant, how does the self-cleavage read?
**A.** 0.17

**Q.** For GUUAACGGUCAUAGGCCAUGGAAACUAGGAGCACCAUUUCGCUGCCAGUGAAGAAAUGGACAAAGAAAAUCUGGGCCAGGCAGGCAUCGAAAGAAAUAGUCUUGCGCUCAACCAGAAAGUCUGUAAUCAUUUUAAGGGUA [A59G A89G], which self-cleavage is on record?
**A.** 1.09

**Q.** With GUUAACGGUCAUAGGCCAUGGAAACUAGGAGCACCAUUUCGCUGCCAGUGAAGAAAUGGACAAAGAAAAUCUGGGCCAGGCAGGCAUCAAAAGAGAUAGUCUUGCGCUCAACCAGAAAGUCUGUAAUCAUUUUAAGGGUA [A59G A95G] as the variant, how does the self-cleavage read?
**A.** 1.68

**Q.** With GUUAACGGUCAUAGGCCAUGGAAACUAGGAGCACCAUUUCGCUGCCAGUGAAGAAAUGGACAAAGAAAAUCUGGGCCAGGCAGGCAUCAAAAGAAAUAGUCUUGCGCUCAACCCGAAAGUCUGUAAUCAUUUUAAGGGUA [A59G A114C] as the variant, how does the self-cleavage read?
**A.** 0.03

**Q.** Which self-cleavage does the source give for GUUAACGGUCAUAGGCCAUGGAAACUAGGAGCACCAUUUCGCUGCCAGUGAAGAAAUGGACAAAGAAAAUCUGGGCCAGGCAGGCAUCAAAAGAAAUAGUCUUGCGCUCAACCAGAGAGUCUGUAAUCAUUUUAAGGGUA [A59G A117G] here?
**A.** 1.71

**Q.** With GUUAACGGUCAUAGGCCAUGGAAACUAGGAGCACCAUUUCGCUGCCAGUGAAGAAAUGGACAAAGAAAAUCUGGGCCUGGCAGGCAUCAAAAGAAAUAGUCUUGCGCUCAACCAGAAAGUCUGUAAUCAUUUUAAGGGUA [A59G A78U] as the variant, how does the self-cleavage read?
**A.** 0.28

**Q.** Which self-cleavage does the source give for GUUAACGGUCAUAGGCCAUGGAAACUAGGAGCACCAUUUCGCUGCCAGUGAAGAAAUGGACAAAGAAAAUCUGGGCCAGGCAGGCAUCAAAAGAAAUAGUCUUGCGCUCAACCAGAAAGUCUGUAUUCAUUUUAAGGGUA [A59G A126U] here?
**A.** 1.27
